Measurements as given in patent US7597894B2, “Compositions and methods employing alternative reading frame polypeptides for the treatment of cancer and infectious disease” (Dendreon Corporation, priority 2003, dated 2009).

Key:
[1] = tested on: CD8 T cell hybridoma B6-H9.B7; assay: T cell hybridoma assay (stimulation of CD8 T cell hybridoma B6-H9.B7 by Ag-pulsed cells); type: cell-based, mouse; details: untransfected EL-4 tumor cells pre-pulsed with the peptide as stimulators
Protocol: CD8 T cell hybridoma B6-H9.B7, specific for the protective Arf peptide 3h, was isolated from mice immunized with HER-2-derived Arf pool B peptides. FIG. 8D. This hybridoma was stimulated by untransfected EL-4 tumor cells pre-pulsed with the peptide 3h as well as an E.HER2 tumor transfectant in the absence of any externally added Arf peptide.
Arf epitope-specific MHC class I-dependent CD8^+ T cell hybridoma B6.H9-B7 was obtained by fusing thymoma cell line BWZ.36CD8 with splenocytes of mice immunized with HER-2-derived Arf pool B3 peptides. Sanderson et al., Int. Immunol. 6:369-376 (1994). The T cell hybridoma assay was performed as described previously. Karttunen et al., Proc. Natl. Acad. Sci. USA. 88:3972-3976 (1991). Briefly, 10^5 hybridoma cells were incubated in 0.2 ml micro-wells with designated washed Ag-pulsed APC. Stimulation of B6.H9-B7 was visualized after incubation with chlorophenol red B-galactoside (expressed in relative light units). FIG. 8E.

[2] = tested on: hHER-2/EL4 (E.HER2) tumor cells; assay: Survival after hHER-2/EL4 (E.HER2) tumor challenge of mice pre-immunized with antigen-pulsed dendritic cells; type: in vivo, mouse; details: C57BL/6 mice pre-immunized i.p. with antigen-pulsed activated DC, challenged i.p. with hHER-2/EL4 (E.HER2) cells
Protocol: (§1) The hHER-2/E14 tumor cell line was generated by transfecting the mouse EL4 thymoma cell line (ATCC No. TIB-39, Rockville, Md.) with full-length human HER-2 cDNA cloned into the MIRB vector. The hHER-2/B16 tumor cell line was generated by transfecting the mouse B16 melanoma cell line (ATCC No. CRL-6322, Rockville, Md.) with full-length human HER-2 cDNA cloned into the pCR3.1 vector.
(§2) Enriched activated dendritic cells (DCs) were prepared as described (Laus et al., Nature Biotechnology 18:1269-1272 (2000)). Briefly, enriched preparations of activated DC were prepared by incubating female C57BL/6 spleen cells in tissue culture flasks for 2 h at 37° C., removing non-adherent cells, and subsequently culturing the remaining adherent cells for two days in the presence of 1 μM ionomycin (Sigma, St. Louis, Mo.). DC obtained in this manner were pulsed by sixteen hour co-culture with each of the indicated HER-2 ARF polypeptide pools or HER-2 fusion proteins in 1 μM ionomycin, washed two times and injected intraperitoneally (i.p.) into the C57BL/6 mice (2.5×10^5 cells per mouse). Two weeks after the last immunization, mice were challenged with a single i.p. injection of hHER-2/EL4 cells or hHER-2/B 16 cells in 0.1 ml PBS. Mice were monitored daily and their survival recorded.
The effect of pre-immunization with HER-2-ARF polypeptide-pulsed activated DC on suppression of in vivo growth of HER-2-expressing autologous tumors was evaluated in a mouse animal model system. The results of two independent experiments using hHER-2/EL4 cells are shown in FIGS. 1A and 1B, respectively. The results of two independent experiments using hHER-2/B 16 tumor cells are shown in FIGS. 2A and 2B, respectively.

[3] = tested on: mPAP/B16 (B16.mPAP) tumor cells; assay: Survival after challenge with B16 cells expressing an irrelevant antigen (mouse PAP); type: in vivo; details: C57BL/6 mice pre-immunized with antigen-pulsed DC, challenged with B16 cells expressing irrelevant antigen mouse PAP
[4] = tested on: hHER-2/B16 (B16.HER2) tumor cells; assay: Survival after hHER-2/B16 tumor challenge of mice pre-immunized with antigen-pulsed dendritic cells; type: in vivo, mouse; details: C57BL/6 mice pre-immunized with antigen-pulsed DC, challenged with hHER-2/B16 cells
Protocol: as §1
as §2, with “Two weeks after the last immunization, mice were challenged with a single i.p. injection of hHER-2/EL4 cells or hHER-2/B 16 cells in 0.1 ml PBS.” left out
The effect of pre-immunization with HER-2-ARF polypeptide-pulsed activated DC on suppression of in vivo growth of HER-2-expressing autologous tumors was evaluated in a mouse animal model system. […]

For “RHEAAAPCQSRDPPG (Made in a lab from synthetic material) [3h]”, the “stimulation of CD8 T cell hybridoma B6-H9.B7” value [1] was “stimulated” and the “protection against tumor challenge / survival (prevention of in vivo tumor growth)” value [2] was “strong protective capabilities”.

In the case of “VHRHRHEAAAPCQSR (Made in a lab from synthetic material) [3g]”, the “protection against tumor challenge / survival (prevention of in vivo tumor growth)” value [2] is reported as “strong protective capabilities”.

B1: HER300: recombinant fusion protein with 289 amino acids of HER-2 membrane distal extracellular domain and OVA257-264; negative control (protein, listed as Homo sapiens)
chain: MRAAPLLLARAASLSLGFLFLLFFWLDRSVLAKELARGAASTQVCTGTDMKLRLPASPETHLDMLRHLYQGCQVVQGNLELTYLPTNASLSFLQDIQEVQGYVLIAHNQVRQVPLQRLRIVRGTQLFEDNYALAVLDNGDPLNNTTPVTGASPGGLRELQLRSLTEILKGGVLIQRNPQLCYQDTILWKDIFHKNNQLALTLIDTNRSRACHPCSPMCKGSRCWGESSEDCQSLTRTVCAGGCARCKGPLPTDCCHEQCAAGCTGPKHSDCLACLHFNHSGICELHCPALVTYNTDTFESMPNPEGRYTFGASCVTACPYNYLSTDVGSASIINFEKLAAPTRSPNPVTRPWKHVDAIKEALSLLNDMRALENEKNEDVDIISNEFSIQRPTCVQTRLKLYKQGLRGNLTKLNGALTMIASHYQTNCPPTPETDCEIEVTTFEDFIKNLKGFLFDIPFDCWKPVQKGAPPPPAHHHHHH
In the case of B1, the “protection against tumor challenge / survival (prevention of in vivo tumor growth)” value [2] is reported as “had little effect”.

B2: HER500rGM-CSF: recombinant fusion protein of hHER-2 extracellular and intracellular domain sequences, OVA octapeptide and rat GM-CSF; positive control (protein, listed as Homo sapiens)
chain: MRAAPLLLARAASLSLGFLFLLFFWLDRSVLAKELARGAASTQVCTGTDMKLRLPASPETHLDMLRHLYQGCQVVQGNLELTYLPTNASLSFLQDIQEVQGYVLIAHNQVRQVPLQRLRIVRGTQLFEDNYALAVLDNGDPLNNTTPVTGASPGGLRELQLRSLTEILKGGVLIQRNPQLCYQDTILWKDIFHKNNQLALTLIDTNRSRACHPCSPMCKGSRCWGESSEDCQSLTRTVCAGGCARCKGPLPTDCCHEQCAAGCTGPKHSDCLACLHFNHSGICELHCPALVTYNTDTFESMPNPEGRYTFGASCVTACPYNYLSTDVGSASIINFEKLGAGGMVHHRHRSSSTRSGGGDLTLGLEPSEEEAPRSPLAPSEGAGSDVFDGDLGMGAAKGLQSLPTHDPSPLQRYSEDPTVPLPSETDGYVAPLTCSPQPEYVNQPDVRPQPPSPREGPLPAARPAGATLERAKTLSPGKNGVVKDVFAFGGAVENPEYLTPQGGAAPQPHPPPAFSPAFDNLYYWDQDPPERGAPPSTFKGTPTAENPEYLGLDVPAAAPTRSPNPVTRPWKHVDAIKEALSLLNDMRALENEKNEDVDIISNEFSIQRPTCVQTRLKLYKQGLRGNLTKLNGALTMIASHYQTNCPPTPETDCEIEVTTFEDFIKNLKGFLFDIPFDCWKPVQKGAPPPPAHHHHHH
With B2 the “protection against tumor challenge / survival” value [3] was “no protection”, the “protection against tumor challenge / survival (prevention of in vivo tumor growth)” value [2] was “prevented tumor growth” and the “protection against tumor challenge / survival” value [4] was “protection”.
